From patent US20160090422A1 (Genentech, published 2016)

Key:
human CRTh2 [1] = target: T1, human CRTh2 (human, UniProt Q9Y5Y4 1-395); assay: radioligand cell binding assay with homologous competition (Scatchard), 293 cells expressing human CRTh2
T1 construct: also native CRTh2 on primary human basophils, eosinophils and Th2 cells; also called hCRTh2; chemoattractant receptor-homologous molecule expressed on T helper 2 cells
T1 sequence: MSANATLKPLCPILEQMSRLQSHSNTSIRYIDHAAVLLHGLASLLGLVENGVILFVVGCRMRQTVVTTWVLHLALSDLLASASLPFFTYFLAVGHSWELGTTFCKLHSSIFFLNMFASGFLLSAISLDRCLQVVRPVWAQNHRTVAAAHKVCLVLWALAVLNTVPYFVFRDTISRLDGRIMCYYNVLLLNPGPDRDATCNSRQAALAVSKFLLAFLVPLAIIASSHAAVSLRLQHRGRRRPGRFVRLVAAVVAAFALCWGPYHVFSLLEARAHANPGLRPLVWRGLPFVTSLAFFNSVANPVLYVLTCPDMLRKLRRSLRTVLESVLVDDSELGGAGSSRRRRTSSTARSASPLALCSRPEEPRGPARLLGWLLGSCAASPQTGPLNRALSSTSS
Procedure: (§1) The equilibrium dissociation constants (KD) for anti-CRTH2 antibodies binding to cells expressing recombinant CRTh2 receptor were determined using a radioligand cell binding assay. […] The cells expressing the CRTh2 receptor were incubated for 2 hours at room temperature with a fixed concentration of iodinated anti-CRTh2 antibody combined with increasing concentrations of unlabeled anti-CRTh2 antibody and including a zero-added, buffer only sample. After the 2-hour incubation, the competition reactions were transferred to a Millipore Multiscreen filter plate and washed 4 times with binding buffer to separate the free from bound iodinated antibody. The filters were counted on a Wallac Wizard 1470 gamma counter. The binding data was evaluated using NewLigand software (Genentech), which uses the fitting algorithm of Munson and Rodbard to determine the binding affinity of the anti-CRTh2 antibody (Munson and Rodbard, Anal. Biochem, 1980; 107: 220-239).
(§2) To obtain a direct measurement of the KD value of humanized antibodies h19A2.v12 and h19A2.v60, Fab fragments of these antibodies were generated and subjected to radioligand cell binding assays (FIG. 4B).

human CRTh2 [2] = target: T1, human CRTh2; assay: radioligand cell binding assay with homologous competition (Scatchard), 300.19 cells expressing human CRTh2
Procedure: as §1, §2

Kd (human CRTh2 [1]): 2 nM
Kd (human CRTh2 [2]): 10.2 nM
B1: murine anti-CRTh2 antibody 19A2 (antibody, V domains shown)
VH: EVKLVESGGGLVQPGGSLKLSCAASGFTFSSYSMSWVRQTPEKRLEWVAYISNGGSTTYYPGTVEGRFTISRDNAKNTLFLQMSSLRSKDTAMYYCARHRTNWDFDYWGQGTTLTVSS
VL: DIQMTQSPASLSVSVGETVTITCRASENIYSNLAWYQQKQGKSPQLVVYAATQLADGVPSRFSGSGSGTQYSLKINSLQSEDFGSYYCQHFWITPWTFGGGTKLEIK
notes: whole IgG in the Scatchard assay; also called mu19A2; Mab 19A2
